Data taken from paper PMC5916898, “Global profiling of protein–DNA and protein–nucleosome binding affinities using quantitative mass spectrometry”.

T1: ZBTB10 (Homo sapiens, UniProt Q96DT7)
T1 sequence: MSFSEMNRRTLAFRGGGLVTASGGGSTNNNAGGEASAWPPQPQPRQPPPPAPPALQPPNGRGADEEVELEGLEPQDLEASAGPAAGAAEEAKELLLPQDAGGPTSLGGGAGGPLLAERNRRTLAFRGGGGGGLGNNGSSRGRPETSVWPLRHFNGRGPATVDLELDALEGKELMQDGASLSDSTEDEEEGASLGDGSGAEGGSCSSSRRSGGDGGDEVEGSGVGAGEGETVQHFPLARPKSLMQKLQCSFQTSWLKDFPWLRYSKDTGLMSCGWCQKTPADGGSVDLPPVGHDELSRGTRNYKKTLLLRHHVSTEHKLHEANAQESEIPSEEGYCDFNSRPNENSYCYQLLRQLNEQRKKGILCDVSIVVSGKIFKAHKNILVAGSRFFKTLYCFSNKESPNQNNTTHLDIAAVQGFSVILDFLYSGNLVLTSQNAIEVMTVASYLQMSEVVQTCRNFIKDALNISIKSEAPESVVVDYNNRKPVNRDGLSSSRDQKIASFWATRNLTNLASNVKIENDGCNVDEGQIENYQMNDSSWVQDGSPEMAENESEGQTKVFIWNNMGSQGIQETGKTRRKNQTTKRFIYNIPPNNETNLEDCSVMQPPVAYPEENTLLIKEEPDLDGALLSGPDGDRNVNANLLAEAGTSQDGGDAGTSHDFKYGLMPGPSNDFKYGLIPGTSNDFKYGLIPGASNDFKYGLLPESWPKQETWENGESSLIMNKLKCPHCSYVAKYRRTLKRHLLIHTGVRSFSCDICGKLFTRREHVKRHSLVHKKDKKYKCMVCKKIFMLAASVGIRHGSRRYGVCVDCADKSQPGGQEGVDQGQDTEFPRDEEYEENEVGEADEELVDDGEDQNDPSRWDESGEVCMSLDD

T2: ZNF512B (Homo sapiens, UniProt Q96KM6)
T2 sequence: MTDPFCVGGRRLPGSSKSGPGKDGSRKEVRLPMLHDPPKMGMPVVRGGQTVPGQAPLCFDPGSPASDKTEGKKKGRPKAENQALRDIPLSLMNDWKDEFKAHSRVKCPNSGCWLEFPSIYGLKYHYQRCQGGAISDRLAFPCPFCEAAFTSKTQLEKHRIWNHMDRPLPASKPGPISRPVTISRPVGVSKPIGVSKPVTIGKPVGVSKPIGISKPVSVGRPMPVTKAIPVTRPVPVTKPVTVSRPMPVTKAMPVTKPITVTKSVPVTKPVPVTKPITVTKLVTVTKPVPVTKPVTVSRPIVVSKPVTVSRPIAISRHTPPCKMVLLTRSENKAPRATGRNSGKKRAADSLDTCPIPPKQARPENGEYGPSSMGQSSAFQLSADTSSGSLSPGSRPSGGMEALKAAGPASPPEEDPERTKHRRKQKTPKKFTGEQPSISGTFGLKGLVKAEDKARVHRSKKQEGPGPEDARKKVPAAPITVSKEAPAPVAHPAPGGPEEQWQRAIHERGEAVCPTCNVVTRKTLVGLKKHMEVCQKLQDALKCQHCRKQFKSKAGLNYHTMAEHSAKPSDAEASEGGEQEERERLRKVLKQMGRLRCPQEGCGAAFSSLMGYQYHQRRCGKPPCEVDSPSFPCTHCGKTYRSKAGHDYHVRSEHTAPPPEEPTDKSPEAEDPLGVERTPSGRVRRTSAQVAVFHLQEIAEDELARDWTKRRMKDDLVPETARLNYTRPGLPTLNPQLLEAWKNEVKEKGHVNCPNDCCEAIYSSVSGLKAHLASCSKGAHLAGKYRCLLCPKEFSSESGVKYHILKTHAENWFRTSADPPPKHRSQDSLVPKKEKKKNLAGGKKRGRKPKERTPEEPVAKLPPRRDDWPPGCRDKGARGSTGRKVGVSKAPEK

T3: NFATC3 (Homo sapiens, UniProt Q12968)
T3 sequence: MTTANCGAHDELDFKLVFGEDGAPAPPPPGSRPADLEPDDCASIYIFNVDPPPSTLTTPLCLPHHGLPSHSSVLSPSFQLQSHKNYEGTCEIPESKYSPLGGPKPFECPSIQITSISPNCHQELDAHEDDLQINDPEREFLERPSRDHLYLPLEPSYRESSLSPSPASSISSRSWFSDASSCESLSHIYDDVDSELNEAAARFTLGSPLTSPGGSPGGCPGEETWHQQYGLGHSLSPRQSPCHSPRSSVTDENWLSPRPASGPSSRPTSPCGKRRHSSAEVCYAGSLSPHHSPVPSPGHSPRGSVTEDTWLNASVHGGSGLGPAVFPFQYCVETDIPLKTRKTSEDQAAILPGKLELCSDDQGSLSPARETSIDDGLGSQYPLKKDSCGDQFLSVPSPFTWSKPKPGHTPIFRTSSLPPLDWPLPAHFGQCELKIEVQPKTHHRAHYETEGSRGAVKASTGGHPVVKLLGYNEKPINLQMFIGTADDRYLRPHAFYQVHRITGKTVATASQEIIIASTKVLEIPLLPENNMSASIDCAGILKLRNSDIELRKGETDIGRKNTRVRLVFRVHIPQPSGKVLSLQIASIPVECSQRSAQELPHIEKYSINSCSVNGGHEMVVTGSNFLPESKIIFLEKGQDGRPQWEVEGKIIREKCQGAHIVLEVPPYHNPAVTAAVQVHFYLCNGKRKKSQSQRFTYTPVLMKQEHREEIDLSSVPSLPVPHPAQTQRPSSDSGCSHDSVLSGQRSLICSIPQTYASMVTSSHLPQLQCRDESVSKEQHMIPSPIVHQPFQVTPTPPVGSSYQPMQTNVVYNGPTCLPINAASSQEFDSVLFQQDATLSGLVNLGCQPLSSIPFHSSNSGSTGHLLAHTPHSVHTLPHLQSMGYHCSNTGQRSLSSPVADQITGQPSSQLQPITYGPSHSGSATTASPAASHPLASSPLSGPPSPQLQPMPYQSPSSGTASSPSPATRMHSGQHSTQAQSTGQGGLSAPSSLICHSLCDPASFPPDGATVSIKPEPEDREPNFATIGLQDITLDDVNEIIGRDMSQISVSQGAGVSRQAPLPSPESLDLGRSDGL

B1: CTCF (dsDNA)
DNA 1: TCAGAGTGGCGGCCAGCAGGGGGCGCCCTTGCCAGA
DNA 2: TCTGGCAAGGGCGCCCCCTGCTGGCCGCCACTCTGA
B2: TEAD (dsDNA)
DNA 1: TCGGGACCCAGGCCTGGAATGTTTCCACC
DNA 2: GGTGGAAACATTCCAGGCCTGGGTCCCGA

Assays:
Experiment in all cases: pulldown; 150 mM NaCl, 50 mM Tris pH 8, 0.25% NP-40, 1 mM TCEP; 4 C, 2 h; 100 ug HeLa nuclear lysate
Settings in all cases: protein: extract; label: 5' biotin (strand 1)
ZBTB10 = biological target: T1, ZBTB10
ZNF512B = biological target: T2, ZNF512B
NFATC3 = biological target: T3, NFATC3

Binder | apparent K (half saturation) (ZBTB10) [nM] | apparent K (half saturation) (ZNF512B) [nM] | apparent K (half saturation) (NFATC3) [nM]
B1 | 40.4 | 353 | –
B2 | – | – | 46.7
